According to PMC8287548:

Columns and labels:
[1] = target: SpyCatcher-HPF (not stated | Helicobacter pylori); assay: covalent conjugation
[2] = target: SpyCatcher-HPF (not stated | Helicobacter pylori); assay: SPR

SpyTag-RBD (from UniProt P0DTC2 319-541)
conjugation efficiency [1]: < 40%
Kd [2]: 2680 nM
